B1: Compound 44 (peptide)
peptide: Isovaleryl-APEK([AEEA-AEEA-γGlu-C18 diacid])PEEEASPEELQRYYVSLRHYYNWITRQRY-NH2
SMILES: CC[C@H](C)[C@H](NC(=O)[C@H](Cc1c[nH]c2ccccc12)NC(=O)[C@H](CC(N)=O)NC(=O)[C@H](Cc1ccc(O)cc1)NC(=O)[C@H](Cc1ccc(O)cc1)NC(=O)[C@H](Cc1c[nH]cn1)NC(=O)[C@H](CCCNC(=N)N)NC(=O)[C@H](CC(C)C)NC(=O)[C@H](CO)NC(=O)[C@@H](NC(=O)[C@H](Cc1ccc(O)cc1)NC(=O)[C@H](Cc1ccc(O)cc1)NC(=O)[C@H](CCCNC(=N)N)NC(=O)[C@H](CCC(N)=O)NC(=O)[C@H](CC(C)C)NC(=O)[C@H](CCC(=O)O)NC(=O)[C@H](CCC(=O)O)NC(=O)[C@@H]1CCCN1C(=O)[C@H](CO)NC(=O)[C@H](C)NC(=O)[C@H](CCC(=O)O)NC(=O)[C@H](CCC(=O)O)NC(=O)[C@H](CCC(=O)O)NC(=O)[C@@H]1CCCN1C(=O)[C@H](CCCCNC(=O)COCCOCCNC(=O)COCCOCCNC(=O)CC[C@H](NC(=O)CCCCCCCCCCCCCCCCC(=O)O)C(=O)O)NC(=O)[C@H](CCC(=O)O)NC(=O)[C@@H]1CCCN1C(=O)[C@H](C)NC(=O)CC(C)C)C(C)C)C(=O)N[C@H](C(=O)N[C@@H](CCCNC(=N)N)C(=O)N[C@@H](CCC(N)=O)C(=O)N[C@@H](CCCNC(=N)N)C(=O)N[C@@H](Cc1ccc(O)cc1)C(N)=O)[C@@H](C)O
B2: Compound 47 (peptide)
peptide: Isovaleryl-APEK([AEEA-AEEA-γGlu-C18 diacid])PPADASPEELQRYYVSLRHYYNWLTRQRY-NH2
SMILES: CC(C)CC(=O)N[C@@H](C)C(=O)N1CCC[C@H]1C(=O)N[C@@H](CCC(=O)O)C(=O)N[C@@H](CCCCNC(=O)COCCOCCNC(=O)COCCOCCNC(=O)CC[C@H](NC(=O)CCCCCCCCCCCCCCCCC(=O)O)C(=O)O)C(=O)N1CCC[C@H]1C(=O)N1CCC[C@H]1C(=O)N[C@@H](C)C(=O)N[C@@H](CC(=O)O)C(=O)N[C@@H](C)C(=O)N[C@@H](CO)C(=O)N1CCC[C@H]1C(=O)N[C@@H](CCC(=O)O)C(=O)N[C@@H](CCC(=O)O)C(=O)N[C@@H](CC(C)C)C(=O)N[C@@H](CCC(N)=O)C(=O)N[C@@H](CCCNC(=N)N)C(=O)N[C@@H](Cc1ccc(O)cc1)C(=O)N[C@@H](Cc1ccc(O)cc1)C(=O)N[C@H](C(=O)N[C@@H](CO)C(=O)N[C@@H](CC(C)C)C(=O)N[C@@H](CCCNC(=N)N)C(=O)N[C@@H](Cc1c[nH]cn1)C(=O)N[C@@H](Cc1ccc(O)cc1)C(=O)N[C@@H](Cc1ccc(O)cc1)C(=O)N[C@@H](CC(N)=O)C(=O)N[C@@H](Cc1c[nH]c2ccccc12)C(=O)N[C@@H](CC(C)C)C(=O)N[C@H](C(=O)N[C@@H](CCCNC(=N)N)C(=O)N[C@@H](CCC(N)=O)C(=O)N[C@@H](CCCNC(=N)N)C(=O)N[C@@H](Cc1ccc(O)cc1)C(N)=O)[C@@H](C)O)C(C)C
B3: Compound 45 (peptide)
peptide: Isovaleryl-APEK([AEEA-AEEA-γGlu-C18 diacid])PEEEASPESLQRYYVSLRHYYNWLTRQRY-NH2
SMILES: CC(C)CC(=O)N[C@@H](C)C(=O)N1CCC[C@H]1C(=O)N[C@@H](CCC(=O)O)C(=O)N[C@@H](CCCCNC(=O)COCCOCCNC(=O)COCCOCCNC(=O)CC[C@H](NC(=O)CCCCCCCCCCCCCCCCC(=O)O)C(=O)O)C(=O)N1CCC[C@H]1C(=O)N[C@@H](CCC(=O)O)C(=O)N[C@@H](CCC(=O)O)C(=O)N[C@@H](CCC(=O)O)C(=O)N[C@@H](C)C(=O)N[C@@H](CO)C(=O)N1CCC[C@H]1C(=O)N[C@@H](CCC(=O)O)C(=O)N[C@@H](CO)C(=O)N[C@@H](CC(C)C)C(=O)N[C@@H](CCC(N)=O)C(=O)N[C@@H](CCCNC(=N)N)C(=O)N[C@@H](Cc1ccc(O)cc1)C(=O)N[C@@H](Cc1ccc(O)cc1)C(=O)N[C@H](C(=O)N[C@@H](CO)C(=O)N[C@@H](CC(C)C)C(=O)N[C@@H](CCCNC(=N)N)C(=O)N[C@@H](Cc1c[nH]cn1)C(=O)N[C@@H](Cc1ccc(O)cc1)C(=O)N[C@@H](Cc1ccc(O)cc1)C(=O)N[C@@H](CC(N)=O)C(=O)N[C@@H](Cc1c[nH]c2ccccc12)C(=O)N[C@@H](CC(C)C)C(=O)N[C@H](C(=O)N[C@@H](CCCNC(=N)N)C(=O)N[C@@H](CCC(N)=O)C(=O)N[C@@H](CCCNC(=N)N)C(=O)N[C@@H](Cc1ccc(O)cc1)C(N)=O)[C@@H](C)O)C(C)C
B4: Compound 51 (peptide)
peptide: Isovaleryl-APEK([AEEA-AEEA-γGlu-C18 diacid])AEEEASPEELQRYYVSLRHYYNWLTRQRY-NH2
SMILES: CC(C)CC(=O)N[C@@H](C)C(=O)N1CCC[C@H]1C(=O)N[C@@H](CCC(=O)O)C(=O)N[C@@H](CCCCNC(=O)COCCOCCNC(=O)COCCOCCNC(=O)CC[C@H](NC(=O)CCCCCCCCCCCCCCCCC(=O)O)C(=O)O)C(=O)N[C@@H](C)C(=O)N[C@@H](CCC(=O)O)C(=O)N[C@@H](CCC(=O)O)C(=O)N[C@@H](CCC(=O)O)C(=O)N[C@@H](C)C(=O)N[C@@H](CO)C(=O)N1CCC[C@H]1C(=O)N[C@@H](CCC(=O)O)C(=O)N[C@@H](CCC(=O)O)C(=O)N[C@@H](CC(C)C)C(=O)N[C@@H](CCC(N)=O)C(=O)N[C@@H](CCCNC(=N)N)C(=O)N[C@@H](Cc1ccc(O)cc1)C(=O)N[C@@H](Cc1ccc(O)cc1)C(=O)N[C@H](C(=O)N[C@@H](CO)C(=O)N[C@@H](CC(C)C)C(=O)N[C@@H](CCCNC(=N)N)C(=O)N[C@@H](Cc1c[nH]cn1)C(=O)N[C@@H](Cc1ccc(O)cc1)C(=O)N[C@@H](Cc1ccc(O)cc1)C(=O)N[C@@H](CC(N)=O)C(=O)N[C@@H](Cc1c[nH]c2ccccc12)C(=O)N[C@@H](CC(C)C)C(=O)N[C@H](C(=O)N[C@@H](CCCNC(=N)N)C(=O)N[C@@H](CCC(N)=O)C(=O)N[C@@H](CCCNC(=N)N)C(=O)N[C@@H](Cc1ccc(O)cc1)C(N)=O)[C@@H](C)O)C(C)C
B5: Compound 48 (peptide)
peptide: Isovaleryl-APEK([AEEA-AEEA-γGlu-C18 diacid])PEEDTEPEELQRYYVSLRHYYNWLTRQRY-NH2
SMILES: CC(C)CC(=O)N[C@@H](C)C(=O)N1CCC[C@H]1C(=O)N[C@@H](CCC(=O)O)C(=O)N[C@@H](CCCCNC(=O)COCCOCCNC(=O)COCCOCCNC(=O)CC[C@H](NC(=O)CCCCCCCCCCCCCCCCC(=O)O)C(=O)O)C(=O)N1CCC[C@H]1C(=O)N[C@@H](CCC(=O)O)C(=O)N[C@@H](CCC(=O)O)C(=O)N[C@@H](CC(=O)O)C(=O)N[C@H](C(=O)N[C@@H](CCC(=O)O)C(=O)N1CCC[C@H]1C(=O)N[C@@H](CCC(=O)O)C(=O)N[C@@H](CCC(=O)O)C(=O)N[C@@H](CC(C)C)C(=O)N[C@@H](CCC(N)=O)C(=O)N[C@@H](CCCNC(=N)N)C(=O)N[C@@H](Cc1ccc(O)cc1)C(=O)N[C@@H](Cc1ccc(O)cc1)C(=O)N[C@H](C(=O)N[C@@H](CO)C(=O)N[C@@H](CC(C)C)C(=O)N[C@@H](CCCNC(=N)N)C(=O)N[C@@H](Cc1c[nH]cn1)C(=O)N[C@@H](Cc1ccc(O)cc1)C(=O)N[C@@H](Cc1ccc(O)cc1)C(=O)N[C@@H](CC(N)=O)C(=O)N[C@@H](Cc1c[nH]c2ccccc12)C(=O)N[C@@H](CC(C)C)C(=O)N[C@H](C(=O)N[C@@H](CCCNC(=N)N)C(=O)N[C@@H](CCC(N)=O)C(=O)N[C@@H](CCCNC(=N)N)C(=O)N[C@@H](Cc1ccc(O)cc1)C(N)=O)[C@@H](C)O)C(C)C)[C@@H](C)O
B6: Compound 49 (peptide)
peptide: Isovaleryl-APEK([AEEA-AEEA-γGlu-C18 diacid])PEEDASPEELQQYYVELRHYYNWLTRQRY-NH2
SMILES: CC(C)CC(=O)N[C@@H](C)C(=O)N1CCC[C@H]1C(=O)N[C@@H](CCC(=O)O)C(=O)N[C@@H](CCCCNC(=O)COCCOCCNC(=O)COCCOCCNC(=O)CC[C@H](NC(=O)CCCCCCCCCCCCCCCCC(=O)O)C(=O)O)C(=O)N1CCC[C@H]1C(=O)N[C@@H](CCC(=O)O)C(=O)N[C@@H](CCC(=O)O)C(=O)N[C@@H](CC(=O)O)C(=O)N[C@@H](C)C(=O)N[C@@H](CO)C(=O)N1CCC[C@H]1C(=O)N[C@@H](CCC(=O)O)C(=O)N[C@@H](CCC(=O)O)C(=O)N[C@@H](CC(C)C)C(=O)N[C@@H](CCC(N)=O)C(=O)N[C@@H](CCC(N)=O)C(=O)N[C@@H](Cc1ccc(O)cc1)C(=O)N[C@@H](Cc1ccc(O)cc1)C(=O)N[C@H](C(=O)N[C@@H](CCC(=O)O)C(=O)N[C@@H](CC(C)C)C(=O)N[C@@H](CCCNC(=N)N)C(=O)N[C@@H](Cc1c[nH]cn1)C(=O)N[C@@H](Cc1ccc(O)cc1)C(=O)N[C@@H](Cc1ccc(O)cc1)C(=O)N[C@@H](CC(N)=O)C(=O)N[C@@H](Cc1c[nH]c2ccccc12)C(=O)N[C@@H](CC(C)C)C(=O)N[C@H](C(=O)N[C@@H](CCCNC(=N)N)C(=O)N[C@@H](CCC(N)=O)C(=O)N[C@@H](CCCNC(=N)N)C(=O)N[C@@H](Cc1ccc(O)cc1)C(N)=O)[C@@H](C)O)C(C)C

The values that follow come from patent US20210139548A1 (published 2021).

*1 amine or outer side, *2 acyl side, *3 side chain or, on linkers, in order; H or OH if unused. Side-chain parts run from the residue outwards. The star is where a group is joined. C18 diacid = O=C(O)CCCCCCCCCCCCCCCCC(=O)*; γGlu = O=C(O)[C@H](CCC(=O)[*:2])N[*:1]; Isovaleryl = CC(C)CC(=O)*; AEEA = NCCOCCOCC(=O)O

By Ki is commonly meant a dissociation constant, usually derived from enzyme kinetics or from competition with a known ligand.

The target in the test is T1, human neuropeptide Y2 receptor (human, UniProt P49146 1-381).
T1 construct: whole, on cells; also called hNPY2 receptor; hNPY2-R
T1 sequence (looked up): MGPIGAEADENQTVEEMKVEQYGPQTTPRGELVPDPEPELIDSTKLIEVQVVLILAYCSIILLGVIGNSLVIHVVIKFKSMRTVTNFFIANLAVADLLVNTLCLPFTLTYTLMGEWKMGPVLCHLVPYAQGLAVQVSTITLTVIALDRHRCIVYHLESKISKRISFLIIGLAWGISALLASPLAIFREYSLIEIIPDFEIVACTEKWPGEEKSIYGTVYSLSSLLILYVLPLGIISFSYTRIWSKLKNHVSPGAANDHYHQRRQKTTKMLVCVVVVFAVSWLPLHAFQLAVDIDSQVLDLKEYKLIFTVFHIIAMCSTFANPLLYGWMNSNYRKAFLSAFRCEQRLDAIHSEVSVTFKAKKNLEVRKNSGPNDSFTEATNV
Put plainly: radioligand competition (125I-PYY(1-36)), hNPY2R membranes. The procedure, abridged:
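Commercial human Y2 receptor membranes (0.5 μg protein/well) were incubated with peptide for 2 h at room temperature in 50 mM HEPES, 5 mM MgCl₂, 1 mM CaCl₂, pH 7.4, with 0.2% ovalbumin. Bound radioligand was separated on PEI-soaked GF/C filters and counted by scintillation, and IC₅₀ came from nonlinear sigmoidal regression.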
In general terms: Loss of bound radioactivity is the signal in a displacement assay; it reports binding, not function.
For the molecule B1, affinity was put at a Ki of 4.44 nM. For the molecule B2, the Ki is 0.42 nM. The same measure for B3: 3.97 nM.

On to B4, for which the Ki amounted to 39.4 nM. Then B5, with 38.9 nM; and B6, with 0.89 nM.
